In patent publication US11319369B2, “Motor control function improving agent” (Kao Corporation, priority 2016, dated 2022):

How the values were obtained:
[1] = system: leptin receptor deficient C57BLKS/J male mice (db/db mice); experiment: Rotarod (motor control function) test after 28-day administration of GIP or GIP-binding anti-GIP antibody; format: in vivo, mouse; settings: intraperitoneal daily for 28 days, GIP 5 nmol/kg, anti-GIP antibody 1 mg/kg, rotarod 6-28 rpm, compared to control group, FIG. 2
Method: Six-week-old leptin receptor deficient C57BLKS/J male mice (db/db mice, Oriental Yeast Co., Ltd.) were transferred (room temperature: 23° C., humidity: 55±10%, light period: 7:00 to 19:00) and were fed with food and water ad libitum. The food was CE-2 (CLEA Japan, Inc.), and the mice were acclimated for 2 weeks under the above-mentioned environment and were then used for testing.
Mouse-derived GIP (manufactured by AnaSpec, Inc.) was dissolved in physiological saline at a concentration of 500 nM to give a GIP solution. […]
Physiological saline (control group), the GIP solution (5 nmol/kg body weight). […] After administration for 28 days, the motor control function was measured by a rotarod test.
The motor control function (the accommodation ability reflecting balance ability and agility) was evaluated by measuring the capacity of staying on a rod rotating at various speeds using a rotarod (MK-600A, manufactured by Muromachi Kikai Co., Ltd.). Each mouse was placed on a stationary rod, and the number of times of falling was measured with a program of 6 rpm (1 min)→12 rpm (1 min)→16 rpm (1 min)→20 rpm (1 min)→24 rpm (1 min)→28 rpm (1 min). […]

GIP(3-42) = target: T1, GIP(3-42) (Homo sapiens, UniProt P09681); experiment: Sandwich ELISA, cross-reactivity with inactive GIP; format: binding; settings: biotinylated antibody 1 μg/mL as detection antibody; GIP 8.2 to 2000 pg/mL; FIG. 1
T1 sequence (P09681 54-93): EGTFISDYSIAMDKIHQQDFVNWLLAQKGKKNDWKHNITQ
Method: (§1) The reactivity between the monoclonal antibody prepared in Production Example 1 and active GIP was confirmed by ELISA. The amino group of the anti-active GIP monoclonal antibody was biotinylated with NH2 group biotinylation kit (manufactured by Dojindo Laboratories). ELISA was performed using the produced biotinylated anti-active GIP monoclonal antibody at 1 μg/mL instead of a detection antibody, GIP detection antibody (biotinylated anti-total GIP monoclonal antibody), included in Human (total) GIP ELISA kit (manufactured by EMD Millipore Corporation). A […] dilution series of GIP(1-42) or GIP(3-42) was prepared in 6 steps (8.2 to 2000 pg/mL) with a 2000 pg/mL solution as the highest concentration. By using an anti-total GIP monoclonal antibody (included in Human GIP (total) ELISA kit manufactured by EMD Millipore Corporation) as a capture antibody, the biotinylated anti-active GIP monoclonal antibody as a detection antibody, and a peroxidase-streptavidin conjugate for detection, sandwich ELISA was conducted to prepare a calibration curve with GIP concentration on the X-axis and 450 nm-590 nm absorbance on the Y-axis (FIG. 1).

[2] = system: aged C57BL/6J male mice (115-week-old); experiment: Rotarod (motor control function) test in aged mice given anti-GIP antibody; format: in vivo, mouse; settings: C57BL/6J mice, 0.5 mg/kg intraperitoneal once a week, tested at 115-week-old, FIG. 4
Method: Four-week-old C57BL/6J male mice (CLEA Japan, Inc.) were transferred (room temperature: 23° C., humidity: 55±10%, light period: 7:00 to 19:00) and were fed with food (D12450K, Research Diets, Inc.) and water ad libitum for 111 weeks.
The anti-active GIP antibody produced in Production Example 1 was dissolved in physiological saline at a concentration of 0.05 mg/mL to give an anti-GIP antibody solution.
Physiological saline (control group) or the anti-GIP antibody solution (0.5 mg/kg body weight) (anti-GIP antibody administration group) was intraperitoneally administered to C57BL/6J mice (107-week-old) once a week (9:00 to 10:00 a.m.), 8 times (8 weeks) in total.
The motor control function (the accommodation ability reflecting balance ability and agility) was evaluated by measuring the capacity of staying on a rod rotating at various speeds using a rotarod (MK-600A, manufactured by Muromachi Kikai Co., Ltd.). The test was performed for 50-week-old mice (non-administration group) and 115-week-old mice (non-administration group, control group, and anti-GIP antibody administration group). Each mouse was placed on a stationary rod, and the number of times of falling was measured with a program of 6 rpm (1 min)→12 rpm (1 min)→16 rpm (1 min)→20 rpm (1 min)→24 rpm (1 min)→28 rpm (1 min).
The analysis results were shown as the average value (Ave.)±standard error (SE). […]

[3] = target: T2, PEGylated N-terminus 13 amino acids of inactive GIP (GIP(3-15)) (Homo sapiens, UniProt P09681); experiment: Hybridoma screening ELISA with immobilized antigen (2); format: binding; settings: hybridoma culture supernatant
T2 construct: made in house; host or cells: synthetic peptide (no expression host)
Method: (§2) Polyethylene glycol was added to N-terminus 15 amino acids of active GIP (GIP(1-15)) (PEGylation (polyethylene glycolation)), and keyhole limpet hemocyanin (KLH) was then chemically bonded thereto to produce KLH-linked PEGylated GIP (1-15) as an immunogen.
(§3) The reaction between the hybridoma culture supernatant and the antigen (1) and (2) for measurement was evaluated by ELISA using immobilized antigen (1) and (2), and hybridomas that are positive for the antigen (1) and negative for the antigen (2) were selected as anti-active GIP monoclonal antibody-producing hybridomas.
(§4) Antibody-producing hybridoma was cloned by culturing the hybridomas obtained above through a limiting dilution method to obtain single colonies, and single colony-forming wells were subjected to ELISA again to establish 9B9H5-B9 line, which produces an antibody that is positive for the antigen (1) and negative for the antigen (2) (WO 2016/104439).

[4] = target: T3, PEGylated N-terminus 15 amino acids of active GIP (GIP(1-15)) (Homo sapiens, UniProt P09681); experiment: Hybridoma screening ELISA with immobilized antigen (1); format: binding; settings: hybridoma culture supernatant
T3 construct: PEGylated N-terminus 15 amino acids of active GIP (GIP(1-15)) was used as an antigen (1) for measurement; made in house; host or cells: synthetic peptide (no expression host)
Method: as §2, §3, §4

GIP(1-42) = target: T4, GIP(1-42) (Homo sapiens, UniProt P09681); experiment: Sandwich ELISA, reactivity with active GIP; format: binding; settings: biotinylated antibody 1 μg/mL as detection antibody; GIP 8.2 to 2000 pg/mL; FIG. 1
T4 sequence (P09681 52-93): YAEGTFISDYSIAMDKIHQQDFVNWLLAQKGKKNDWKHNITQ
Method: as §1

For “GIP: Mouse-derived GIP (manufactured by AnaSpec, Inc.), gastric inhibitory polypeptide, dissolved in physiological saline at 500 nM (YAEGTFISDYSIAMDKIRQQDFVNWLLAQRGKKSDWKHNITQ)”, which “decrease in the motor control function (increase in the number of times of falling with an increase of the rotation speed)” value [1] is on record?
The value was “significant decrease”.

B1: monoclonal antibody prepared in Production Example 1: Mouse monoclonal anti-active GIP antibody produced by hybridoma 9B9H5-B9 line; H-chain variable region SEQ ID NO: 2, L-chain variable region SEQ … (antibody, listed as Mus musculus, V domains shown)
VH: QVQLQQPGAELVKPGASVKLSCKASGYTFTSFWMHWVIQRPGQGLEWIGEMNPSDGRTHFNEKFKTKATLTIDTSSNTAYMELNSLTSEDSAVYYCARRMEDWGQGTLVTVSA
VL: DIKMTQSPSSMYASLGERVTITCKASQDINSYLGWFQQKPGKSPKTLIYGANRLVDGVPSRFSGSGSGQDYSLTISSLEYDDMGIYYCLQYDEFPLTFGAGTKLELKR
With B1 as the molecule, how does the “cross-reactivity with GIP(3-42) (450 nm-590 nm absorbance)” value (GIP(3-42)) read?
Its value is “does not show cross-reactivity”.

What about the “motor control function (number of times of falling) compared to non-administration and control 115-week-old groups” value ([2]; 8 times from 107-week-old, rotarod 6-28 rpm) of the same molecule?
The value was “improvement in the motor control function was observed”.

What about the “motor control function relative to the non-administration (50-week-old) group” value ([2]; 8 times) of the same molecule?
The value was “equivalent to that of the non-administration (50-week-old) group”.

And the “ELISA reaction with antigen (2)” value [3]?
Its value is “negative”.

And the “ELISA reaction with antigen (1)” value [4]?
The value was “positive”.

What about the “reactivity with GIP(1-42) (450 nm-590 nm absorbance)” value (GIP(1-42)) of the same molecule?
The value was “capable of specifically detecting GIP(1-42)”.
